According to patent US20040053816A1 (COUNCIL OF SCIENTIFIC AND INDUSTRIAL RESEARCH, published 2004):

Biological target: insulin receptor (IR) of carp adipocytes (carp Catla catla)
Assay: cell-based or functional assay

B1: Purified adipocyte insulin (Adplnsl) of the carp Catla catla (ligand)
chain 1: GIVEQCCHKPCSIFELQNYCN
chain 2: PGAPQHLCGSHLVDALYLVCGPTGFFYNPK
  glucose uptake by adipocyte: 2 fold
